{"source": "patent US6416738", "key": {"[1]": {"target": "Biotinylated NR-LU-10 (lysine)", "assay": "cell-based or functional assay"}, "[2]": {"target": "Biotinylated NR-LU-10 (thiol)", "assay": "cell-based or functional assay"}, "Avidin [3]": {"target": "Avidin (UniProt P02701)", "sequence (P02701 25-152 limits assumed)": "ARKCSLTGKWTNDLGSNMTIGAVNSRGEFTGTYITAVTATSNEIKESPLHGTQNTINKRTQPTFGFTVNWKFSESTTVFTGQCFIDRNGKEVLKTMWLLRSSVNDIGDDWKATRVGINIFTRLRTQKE", "assay": "binding of radioiodinated biotinylated antibody to avidin-agarose"}, "[4]": {"target": "NR-LU-10 antigen (approximately 40 kilodalton glycoprotein antigen expressed on most carcinomas) (human) (UniProt P16422)", "sequence (P16422 24-314)": "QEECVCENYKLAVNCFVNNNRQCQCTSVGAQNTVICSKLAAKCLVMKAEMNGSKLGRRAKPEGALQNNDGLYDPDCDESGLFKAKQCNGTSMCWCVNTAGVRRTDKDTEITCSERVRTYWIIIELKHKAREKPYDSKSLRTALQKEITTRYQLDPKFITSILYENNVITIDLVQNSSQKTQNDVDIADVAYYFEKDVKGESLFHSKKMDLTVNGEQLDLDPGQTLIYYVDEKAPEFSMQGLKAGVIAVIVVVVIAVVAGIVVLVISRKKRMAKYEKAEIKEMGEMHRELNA", "assay": "limiting antigen ELISA, percent of native NR-LU-10"}, "[5]": {"target": "NR-LU-10 antigen on LS-180 tumor cells (human) (UniProt P16422)", "sequence (P16422 24-314)": "as above", "assay": "binding to LS-180 tumor cells at antigen excess, percent of native NR-LU-10"}, "Avidin [6]": {"target": "Avidin (UniProt P02701)", "assay": "residual circulating radiolabeled antibody after avidin injection in mice, examined in vitro on immobilized biotin"}, "[7]": {"target": "NR-LU-10 antigen (approximately 40 kilodalton glycoprotein antigen expressed on most carcinomas) (human) (UniProt P16422)", "assay": "ELISA, percent of native NR-LU-10 (thiol biotinylation)"}, "[8]": {"target": "NR-LU-10 antigen on LS-180 tumor cells (human) (UniProt P16422)", "assay": "cell binding, percent of native NR-LU-10 (LS-180 cells as described for Table 2)"}, "Streptavidin": {"target": "Streptavidin (UniProt P22629)", "sequence (P22629 37-163 limits assumed)": "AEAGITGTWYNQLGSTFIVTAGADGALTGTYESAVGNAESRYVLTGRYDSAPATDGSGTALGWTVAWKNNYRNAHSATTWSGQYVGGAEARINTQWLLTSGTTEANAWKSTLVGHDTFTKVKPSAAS", "assay": "20 ug radiolabeled protein with 400 ul streptavidin-agarose beads, spun and washed, counted"}}, "data": [{"substance": "Avidin (from UniProt P02701 25-152)", "values": [{"measurement": "blood pool concentration of biotinylated antibody in mice after avidin administration", "setting": "[1]", "value": 10, "unit": "fold"}, {"measurement": "circulating antibody level in mice after avidin administration (% of injected dose)", "setting": "[2]", "value": 35}]}, {"substance": "Biotinylated NR-LU-10 (lysine) (antibody)", "values": [{"measurement": "% specific binding to immobilized avidin-agarose", "setting": "Avidin [3]", "value": 98, "unit": "%"}]}, {"substance": "Biotinylated NR-LU-10 (lysine), molar offering 5:1, measured 3.4 biotins/Ab (antibody)", "values": [{"measurement": "Immunoassessment (%) ELISA, immunoreactivity as compared to native antibody", "setting": "[4]", "value": 86, "unit": "%"}]}, {"substance": "Biotinylated NR-LU-10 (lysine), molar offering 10:1, measured 8.5 biotins/Ab (antibody)", "values": [{"measurement": "Immunoassessment (%) ELISA, immunoreactivity as compared to native antibody", "setting": "[4]", "value": 73, "unit": "%"}, {"measurement": "Immunoassessment (%) Cell Binding", "setting": "[5]", "value": 100, "unit": "%"}]}, {"substance": "Biotinylated NR-LU-10 (lysine), molar offering 13:1, measured 11.1 biotins/Ab (antibody)", "values": [{"measurement": "Immunoassessment (%) ELISA, immunoreactivity as compared to native antibody", "setting": "[4]", "value": 69, "unit": "%"}, {"measurement": "Immunoassessment (%) Cell Binding", "setting": "[5]", "value": 102, "unit": "%"}]}, {"substance": "Biotinylated NR-LU-10 (lysine), molar offering 20:1, measured 13.4 biotins/Ab (antibody)", "values": [{"measurement": "Immunoassessment (%) ELISA, immunoreactivity as compared to native antibody", "setting": "[4]", "value": 36, "unit": "%"}, {"measurement": "Immunoassessment (%) Cell Binding", "setting": "[5]", "value": 106, "unit": "%"}]}, {"substance": "Biotinylated NR-LU-10 (lysine), molar offering 40:1, measured 23.1 biotins/Ab (antibody)", "values": [{"measurement": "Immunoassessment (%) ELISA, immunoreactivity as compared to native antibody", "setting": "[4]", "value": 27, "unit": "%"}]}, {"substance": "Biotinylated NR-LU-10 (thiol) (antibody)", "values": [{"measurement": "% specific binding to immobilized avidin-agarose", "setting": "Avidin [3]", "value": 98, "unit": "%"}, {"measurement": "% of biotinylated antibody complexed with avidin", "setting": "Avidin [6]", "value": 85, "unit": "%"}]}, {"substance": "Biotinylated NR-LU-10 (thiol), molar offering 10:1, measured 4.7 biotins/Ab (antibody)", "values": [{"measurement": "Immunoassessment (%) ELISA, immunoreactivity as compared to native antibody", "setting": "[7]", "value": 114, "unit": "%"}]}, {"substance": "Biotinylated NR-LU-10 (thiol), molar offering 50:1, measured 6.5 biotins/Ab (antibody)", "values": [{"measurement": "Immunoassessment (%) Cell Binding", "setting": "[8]", "value": 100, "unit": "%"}, {"measurement": "Immunoassessment (%) ELISA, immunoreactivity as compared to native antibody", "setting": "[7]", "value": 102, "unit": "%"}]}, {"substance": "Biotinylated NR-LU-10 (thiol), molar offering 100:1, measured 6.1 biotins/Ab (antibody)", "values": [{"measurement": "Immunoassessment (%) Cell Binding", "setting": "[8]", "value": 100, "unit": "%"}, {"measurement": "Immunoassessment (%) ELISA, immunoreactivity as compared to native antibody", "setting": "[7]", "value": 95, "unit": "%"}]}, {"substance": "Biotinylated human asialoorosomucoid (from UniProt P02763 19-201)", "values": [{"measurement": "% radioactivity in Pellet (bound to streptavidin-agarose)", "setting": "Streptavidin", "value": 90, "unit": "%"}, {"measurement": "% radioactivity in Supernatant (not bound to streptavidin-agarose)", "setting": "Streptavidin", "value": 10, "unit": "%"}]}, {"substance": "Biotinylated human orosomucoid, PIP-125-labeled (from UniProt P02763 19-201)", "values": [{"measurement": "% radioactivity in Pellet (bound to streptavidin-agarose)", "setting": "Streptavidin", "value": 92, "unit": "%"}, {"measurement": "% radioactivity in Supernatant (not bound to streptavidin-agarose)", "setting": "Streptavidin", "value": 7.7, "unit": "%"}]}]}
